Patent US12351610B2, “Interferon regulatory factor 5 inhibitors and uses thereof” (THE FEINSTEIN INSTITUTES FOR MEDICAL RESEARCH, priority 2019, dated 2025)
“Also recorded” adds a separate entry of the source.

What was measured:
[1] = biological target: T1, human full-length recombinant IRF5 variant 5 (isoform V5) (Homo sapiens, UniProt Q13568); assay: Surface plasmon resonance (SPR) binding of peptides to immobilized full-length recombinant IRF5; settings: peptides 1 μM, IRF5 immobilized on chip, 25° C.
T1 construct: Full-length recombinant IRF5 protein (ab173024, Abcam) was immobilized onto a CMS series chip; purchased Abcam ab173024
T1 sequence (Q13568 1-514 isoform Q13568-2): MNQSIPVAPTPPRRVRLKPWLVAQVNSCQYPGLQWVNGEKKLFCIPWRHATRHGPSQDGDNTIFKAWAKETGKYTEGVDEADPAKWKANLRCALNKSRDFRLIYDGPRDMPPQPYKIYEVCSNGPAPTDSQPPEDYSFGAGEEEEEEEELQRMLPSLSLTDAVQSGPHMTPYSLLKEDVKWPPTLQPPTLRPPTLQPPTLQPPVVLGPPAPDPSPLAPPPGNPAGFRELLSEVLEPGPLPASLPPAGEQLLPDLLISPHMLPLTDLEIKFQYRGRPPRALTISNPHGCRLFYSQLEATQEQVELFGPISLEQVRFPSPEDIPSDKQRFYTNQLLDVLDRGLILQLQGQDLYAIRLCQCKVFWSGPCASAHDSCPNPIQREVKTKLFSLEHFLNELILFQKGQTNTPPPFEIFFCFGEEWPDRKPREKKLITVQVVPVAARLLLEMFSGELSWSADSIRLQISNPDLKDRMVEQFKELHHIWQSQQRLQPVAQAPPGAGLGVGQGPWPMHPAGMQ
Method: Surface Plasmon Resonance (SPR) Analysis. The Biacore T200 (GE Healthcare, UK) was used for real-time binding interaction studies. Full-length recombinant IRF5 protein (ab173024, Abcam) was immobilized onto a CMS series chip (GE Healthcare) by diluting to a concentration of 20 μg/mL in 10 mM acetate buffer (pH=5.0). A 1:1 mixture of N-hyrdoxysuccinimide and N-ethyl-N-(dimethyaminopropyl)carbodiimide was used to activate 2 flow-cells of the CMS chip. […] The sample flow-cell was injected with the diluted IRF5 at a flow rate of 10 μL/min by manual injection. The IRF5 injection was stopped when the SPR reached ˜490 RU. For binding of peptides to IRF5, the analytes (peptides) were diluted to 1 μM in 1×PBS+0.05% Tween20 buffer, filtered (0.22 μm) and injected over the IRF5 immobilized chip at a flow rate of 30 μL/min for 60 s at 25° C. with a dissociation time set for 1 min. Binding experiments were conducted in 1×PBS+0.05% Tween20 as the running buffer; at least 3 independent experiments were performed.
Peptides (1 μM) were tested for their ability to directly interact with human full-length recombinant IRF5 variant 5 (isoform V5) by surface plasmon resonance (SPR) analysis. DWEYS (SEQ ID NO:23) peptide served as a non-targeted control and CPP1 (SEQ ID NO:4) as a control for the cell permeable sequence. […] A shared similarity between N5-1 (SEQ ID NO:20) and N5-2 (SEQ ID NO:17) is their relatively stronger positive charge, as compared to the others (Table 1).
Human IRF5 contains two nuclear localization signals (NLS), one in the N-terminus and one in the C-terminus (27). N5-1 (SEQ ID NO:20) corresponds to the N-terminal NLS (PRRVRLK) (SEQ ID NO:24). To test whether any NLS is capable of binding to IRF5, we generated C5-2 (SEQ ID NO:22) that corresponds to the C-terminal NLS of IRF5 (PREKKLI) (SEQ ID NO:25) and examined binding by SPR.

[2] = tested on: IRF5 nuclear translocation in monocytes (Mo) of PBMC from healthy donors; assay: R848-induced IRF5 nuclear translocation in PBMC monocytes (CD14+), imaging flow cytometry; format: cell-based, human; settings: 10 μM peptide pre-incubation 1 h, then 500 ng/mL R848 for 2 h
Method: (§1) Imaging Flow Cytometry. Imaging flow was performed as previously described on the Amnis Imagestream (19). Briefly, PBMCs from healthy donors were isolated and treated with inhibitor for 1 h, subsequently stimulated with R848 (500 ng/mL) or 2% SLE serum for 2 h, followed by staining for CD19 and CD14. PBMC were then fixed overnight in 1% paraformaldehyde and then permeabilized (19). Permeabilized cells were blocked in 5% BSA solution and stained for intracellular IRF5 (Abcam Catalog #: ab193245) or phospho(pSer462)IRF5 and FITC-conjugated secondary antibody (Abcam Catalog #: ab6896). Prior to acquisition, DRAQS dye was added at a 1:50 dilution. PBMC from SLE patients were only surface-stained and permeabilzed for intracellular IRF5 and DRAQS staining. Murine PBMC were stained similarly for intracellular IRF5 (Abcam Catolog #: 181553) (58) and APC-conjugated secondary antibody (BioLegend). Images were acquired on the ImageStream using the 40× objective. Nuclear translocation was quantified in the Amnis IDEAS software suite. Briefly, cells were first filtered through the brightfield area vs. brightfield aspect ratio gate to exclude non-viable and doublet events. Following which a similar gate of the DRAQS nuclear channel was used. This added an extra measure of stringency for cell viability. Images were gated on either CD14^+IRF5^+, CD19^+IRF5^+, or CD123^+BDCA2^+IRF5^+ events, followed by gating on images with a Gradient RMS of greater than 20 on the DRAQS channel. This was done to select images with a high level of clarity. Finally, IRF5 nuclear translocation was determined through use of the similarity score feature contrasting IRF5 staining with DRAQS staining. A similarity score≥2 was considered a translocation event.
Peptide mimetics inhibit TLR7-induced IRF5 nuclear translocation. We next sought to determine whether in vitro binding data would translate into IRF5 cellular inhibition. IRF5 is a key downstream mediator of TLR7-induced cytokine expression and TLR7 signaling has been implicated in SLE pathogenesis (2,44-47). We examined the ability of IRF5 peptide mimetics to inhibit IRF5 nuclear translocation following stimulation of PBMC with R848. […] For the initial screening, isolated PBMC from healthy donors were pre-incubated in the presence of mock (PBS), or 10 μM CPP1 (SEQ ID NO:4), N5-1 (SEQ ID NO:20), N5-2 (SEQ ID NO:17), N5-3 (SEQ ID NO:18) or C5-2 (SEQ ID NO:22) inhibitor for 1 h followed by stimulation with 500 ng/mL of R848 for 2 h. Cells were surface-stained with anti-CD14 (monocytes or Mo) and anti-CD19 (B cells) antibodies, then permeabilized and stained for intracellular IRF5 and DRAQ5. As expected, R848 induced significant IRF5 nuclear translocation in mock-incubated Mo (2) and B cells.

[3] = tested on: IRF5 nuclear translocation in B cells of PBMC from healthy donors; assay: R848-induced IRF5 nuclear translocation in PBMC B cells (CD19+), imaging flow cytometry; format: cell-based, human; settings: 10 μM peptide pre-incubation 1 h, then 500 ng/mL R848 for 2 h
Method: as §1, with “This added an extra measure of stringency for cell viability. Images were gated on either CD14^+IRF5^+, CD19^+IRF5^+, or CD123^+BDCA2^+IRF5^+ events, followed by gating on images with a Gradient RMS of greater than 20 on the DRAQS channel. This was done to select images with a high level of clarity.” left out, “A similarity score≥2 was considered a translocation event.” left out

Substance | binding affinity for IRF5 [1] | effect on R848-induced IRF5 nuclear translocation in Mo [2] | effect on R848-induced IRF5 nuclear translocation in B cells [3]
DRQIKIWFQNRRMKWKK (listed as Drosophila antennapedia) [CPP1, reference compound] | minimal binding affinity | no significant effect | no significant effect
DRQIKIWFQNRRMKWKKEGVDEAD (cell penetrating and targeting sequence) [Peptide N5-5] | no affinity for IRF5 |  | 
DRQIKIWFQNRRMKWKKGPRDMPP (cell penetrating and targeting sequence) [Peptide N5-4] | N5-3 (SEQ ID NO:18)>N5-4 (SEQ ID NO:19)>CPP1 (SEQ ID NO:4) |  | 
DRQIKIWFQNRRMKWKKKSRDFRL (cell penetrating and targeting sequence) [Peptide N5-3] | binding to a slightly lesser extent; also recorded: directly bind to the full-length inactive IRF5 monomer | significant reduction | 
DRQIKIWFQNRRMKWKKPRRVRLK (cell penetrating and targeting sequence) [Peptide N5-1] | strongest binding affinity for IRF5; also recorded: directly bind to the full-length inactive IRF5 monomer | significant reduction | 
DRQIKIWFQNRRMKWKKRHATRHG (cell penetrating and targeting sequence) [Peptide N5-2] | strongest binding affinity for IRF5; also recorded: directly bind to the full-length inactive IRF5 monomer | significant reduction | 
DWEYS (listed as Homo sapiens) [peptide that served as a non-targeted control, reference compound] | no affinity for IRF5 |  | 
